A short description of the data set: label from the status in PepcDB records.
Turning to “MNYLVLLIPVLFSFHQIFVRLGSREAETISGIYVSLLASTIIFIPSVANPTLDGMFLLYMSLAGVLHFFVARICFYHAISRIGANLSAPLSATRVFFAALLGIFVGEYLTLRVVVMSLLIFAGIVLISRPKGKADAFGVTLGILTGLFSALSSYFVKFGNAVDYNPLFAIFLGFALSTILMTPLAVRKDLSHTKFYLAAGVTVGIAHLLRYVVLKDVPVTVVEPITSSYPLFTLLLSAIFLREGEIFTLRSITGTLLILGGIYVYYA”, the protein production result is listed as “failed”. Regarding “MPADIIIHNGSLITFDEARPQAQALAIQGGMIAAVGSDAEILALAGPETRLIDAGGGTVLPGFIDSHVHLFGGSVELDCLSLYGVKGLDAMRAAIQPYAQANPDDALVFCVMADYDILGTGHTLTRHDLDSILADRPLAMFAPDHHTVWANTAALEATGLLQGGEVDAGSLIVLGEDGLANGELLEPGAYGPILGLTRHGGREMLGLTTGKDPEPPATPDQRARDKDVIARGLAHCAAQGITGLHLMDGNRYQLELLTELEAEGRLLCRCEVPFHMKGTDPVERMTAEAPAMRAAYRGDKVRCNHLKMFIDGVIESGTALMLRPYPGELGANDNTGDEVFTQEHFTACCVEADRLGFQIAVHAIGDAGVRRTIDAFEAARRANGTRDSRHRIEHIEVIHPDDIPRLAELDIVASLQPGHAPRGHVFPPGAVGQYLHPDQIVGAYAWQTIRETGARVVFSTDWPVIPVDVMPSLRAAIAPLDLGPDWPDQSQSLMDTLASYTRDNAWVEFNEDSKGRLKVGMAADIAVLSHDLTALAPDDITQAAAMVTIMDGAVTYQRPG”, the protein production result is “failed”. Consider “MPAERDSSAAWAVCVYCASGPQHPELLGVAAELGEAIAERGWTLVWGGGRVSAMGAVASAARARGGRTVGVIPTVLMRREIADADADELIVSDTLHERKQIMEDRADAFIALPGGIGTLDEVLDAWTTGFLGLHAKPIVLLDPIGHYEGLWLWLSGLLDSGYITQAAMDRVVLVDKVGAALEACAPG”, for which the protein production entry is given as “failed”. For the sequence “MPAHSLSLYQYYRPPLDWQAQLAFYRLRAVAGMEWFSNTDNDCLEKIAQDKQALEYGRTLQIDDIRAVVHIIHEAHLHRFKLTLTFTPDSPIAGLQKLITQVRRILDLDADMQQIEHNLQRLTDLKLIPKSGLRIPGAGSLEHHHHHH”, the protein production entry is on record as “failed”. For the sequence “MPASPEESAMTPWTPIARLEEIPRQGARVVATPEGAIAVFRTLDDRVFALLDRCPHKGGPLSQGIVHGARVACPLHNWVIELDSGQAVAPDEGCVRRFETRLEDGMVAIALPDSLVGTLEHHHHHH”, the protein production result is given as “not failed”. For “MPCTAKVLELRPSVDALLRQHVRTLQGTGRGQCSKSFVPAIRQELVMIALFQGLGLLLQDNALHRLPFDEQVAHWRDKTDAQLDEELSLLKVAKKQWVIASIIGWQAISLILLGVITHQLWQNDYHLTFSRVVIIFTSWASILFVMWYIADLFDHSAGFERWLRAFNSRARVTPDADSVECVADALDMTRRYPEVLRYKQEVTSKRELRHEDIVNMREMGRLRRYTELLRDLDRFDGAPRLVANA”, the protein production result is listed as “failed”.

“MPDGDFITLDRVEKVFDVRRKTGFLRSERRRVRAVDSLSFTVARGEMVGYIGPNGAGKSTTIKMLTGILTPSGGRLRVAGIDPSRERTRLAARIGVVFGQRTTLWWDLPLIDSYRLMHRMYRIPDGRYRENLDRCVELLELGDLLDVPVRQLSLGQRMRGDIAAALLHDPEVLYLDEPTIGLDVISKARVREFLRELNAERGTTVLLTTHDLQDIEQLCGRVMVIDHGRLMYDGPLAGLHEVGDSERTLVVDLARELPPIEAAPARVVKVEGPRQWLAFPASESAAPLVARIAAAYPLVDLSVREPDIEAVIAKMLQSMGDTPQPPPEQAEHVVSLEHHHHHH”: the protein production entry was “not failed”. As to “MPDKFKRVHVIVMDSVGIGEAPDAAKFGDFDVDTFGHIAKHVGGLKMPEMGKLGLSNIREIEGIEKAEKPLAYYTKMQEASNGKDTMTGHWEIMG”, the protein production result is on record as “failed”.

“MPDNFLIVPSADVQGGRLTTLSNAISTTDLNLTVTGLSNDTELVVYQLSTGVIGTPQAAAQPRETHVFALMGQSNMIGRAAFDGGAKWPDGTLQIGRGGDEDGAIIPARNPADGPATSRPLAHTGARLGNMGLDIQFAIDYLSDKPDVTLLFIPCAQGATGFSNGAWNPGDWLYNRETARINAAMNANPEFLFQGFLWHQGETDTGIPGTYGGLLDNLIAGLRRDVTAATPTTPFILGGLAAGNAGRDAITGIIAATPGRVPYTAFAPTADLSLTDANHFDAASFRTLGARYAAALASAAANQPGAPGIPTGLSAVAGDTEVTLSWSAPANTGGTALSDYIIERDSGSGFAALADGTGTTTGYTDSGLSNGTTYAYRVRAVNGTGTGAATPPQSATPAAPATGPVAEAGAQAHWLFGADNPTYADLVSGRIATGPAHALEAAYMTSPAGIRQGRDTGIAEADAQTMCFVFQLAGSANSMIGGTLTTSGSNGVSPYTSATTGIYANMRGGWGNPAISSASPYRTQFVFAAVSKNVATGNYVLFAGNGAGHDVLTGTSAQTTSPRTIGIGNLHFDRANFSGQISIAEAILFDSAKTEIELTEIYDRSRTRLAARGLTVV”: the protein production entry was “failed”. Consider “MPDPIFSVSDARRSGTRLIGFGIGAIVVILATAATFLLLTLPDANAFNARVERVFIENDLTTQAEIRLLEILAQSGTAFADTLSSYRMVIFVLLVFASAMMIAALAFLVMLVLLNRRMAQIERTGIQVTSLLISREENTVYLNNMEFQLTPAAIETLAVLAEARMDDDVLSGAQIEAVISGRDASDCEEAAGATRIKRLRDTLGNQMISALLVKNIAKRGYMLAIEKSVIQMV”, for which the protein production entry was “failed”. As for “MPDPKPEVLDFLLSRRSRPAKTLALPVPDRAALAPILTGALRTPDHGKLEPWRLIVLEAGAMPRLAALADARAEALALDPDKSAKGRAQFAQSHLAVVVVARPEPSDKVPEIEQILSAGAVCLSLLNAAQAAGWGANWLTGWPAYDRGFLREGLGLAETEFVAGIVHIGSETVAPPERPRPDVASLTTWVSE”, the protein production entry is listed as “failed”.

On to “MPDTKIVDANNKFGFKLFSEIAKQDGNAKNISVSPTSVAIALAMTYNGASGSTQKAMAKTLELQGISLPELNSGYASLNKLLQNPGENVQLTIANSLWVNQDVSLRPDFVQTTRDFYQAKVTNLDFQNVTAVNTINSWVQENTKGKIDKIVDNIEPNQALFLINAIYFNGKWSNAFDKSQTTPQTFYTASGQQKQHPMMSQTGEYRYYETPQFQSVSLPYGQDGKVSLYIFLPTKNSNLKAFSQNLNAENWEKWMPQFRNREGSIRLPRFQTDYDITLNDALKSLGMAEAFSNKANFSGIGDNLTISQVRHKTVIEVNEEGTEASAATSVGMVATSLREPQQPFKMIVDRPFFYAIRDNQSKNILFMGAVVEPN”, for which the protein production result is “failed”. The same measure for “MPDVDKIIQFKREILDNLSNERLSKESFGLSMDVKLPEPGESIVPWIGEDLALDETDDELDLNFMLDALENEDKLSYSDIFNDNLPLSGSNLRVDVDSELSTLNNDFDVSSSDSFENNIDKVLDDNSIDLEIASKLDFDNLINSPELSSEELINNQGNNNFFEANNDSSVLGDSNFLQSNEFNIDDAVNGKNQTDEQSEMFVGDSLNLSADEDDFENVIDDFKFLEYDQNANFKRFEFKVNYPLFLKHLNSYPRNLRIAIAEALTKENVSRFKLEALIDLVEKNKKRLKFIAKFVGDIVGRSIKLPVIYFKAEEFSKLQQKLSYRVSRALLPLIKIASFFVVLVLVSLYLIVDVIFFYVASESKYKEGIESIYANKRDLAKSIFRDAYYIRPDDKWFINYAKAFEDVRDFDSAEEKYEELFTIEPFSKNSTNRRRKKFNKEGYISYASMKIGLGEHSEANSILDEVISYDLYDYDALVLKGDNYFKWAKTNSNYYKDSINSYTVVLSKYGQKKEILFKLFNAYIEANLDTESDNVNNFIKSNEILDIDEVVYTKYAKKLVDKYISFVTYNQRANNLAINLNYLNGQTNLLNKEFSDFKRNDGRTIFKLDNNVNMNSEIEYILRKILNKNPNYDKALFESGRYSYYIGDFKKAEVYLLKALNSFRHKNSIEDAGDKILAYKILADIYEKTRDSLRASNIIGLALSDYSFYKKHNLIKGSKEISSIYEKQGDILRSLNDFKSAISSYKLAINEGVDYPDVYYKVGLLSYRENNYDDALKYLFKVESMAGFSSSNEVLNTIALTLYKIGDFLASRSYYLRVMQNLELEKANVLNFNPKENDYHKTLLLKEIETYNNLGVVEVMASFSSIRDTKLFNSGVSNLSESAKIFDILNRDEDMVKSVKKDLASLNLRNIFKNSFSKSNVLFYENLSEKL”: “failed”.

The values above are taken from a protein production outcome set (Wang et al. 2014).
